Assay results: paper PMC6085627, “Exploring the biological functional mechanism of the HMGB1/TLR4/MD-2 complex by surface plasmon resonance” (Molecular Medicine, 2018)
Changes are numbered by the printed parent chain. Blank lines part the entries; values can stand above or below the binder they belong to.

Experiments:
Human TLR4/MD-2 complex = biological target: T1, Human TLR4/MD-2 complex (human, UniProt O00206 24-631; Q9Y6Y9 19-160); assay: SPR; Biacore T200; TLR4/MD-2 amine-coupled on CM5 (~1200 RU); HMGB1 isoforms injected at 30 μL/min for 60 s, 25 °C, dissociation 1 min; HBS-EP pH 7.4 (10 mM hepes, 150 mM NaCl, 3 mM EDTA, 0.05% P20); 1:1 binding supposed; apparent KD; settings: both partners purified
T1 construct: Toll-like receptor 4 (TLR4), human, chain of the bought TLR4/MD-2 complex; Myeloid Differentiation factor 2 (MD-2), human, chain of the bought TLR4/MD-2 complex; No catalogue number printed; also called TLR4/MD-2 receptor; source: bought: R&D Systems

human TLR4 = biological target: T2, human TLR4 (human, UniProt O00206 24-631); assay: SPR; Biacore T200; rhTLR4 amine-coupled on CM5 (~800 RU); HMGB1 isoforms injected at 30 μL/min for 60 s, 25 °C, dissociation 1-2 min; HBS-EP pH 7.4; 1:1 binding supposed; apparent KD; settings: both partners purified
T2 construct: Toll-like receptor 4 (TLR4), recombinant human (rhTLR4); No catalogue number printed; also called rhTLR4; Toll-like receptor 4; source: bought: R&D Systems
T2 sequence (O00206 24-631): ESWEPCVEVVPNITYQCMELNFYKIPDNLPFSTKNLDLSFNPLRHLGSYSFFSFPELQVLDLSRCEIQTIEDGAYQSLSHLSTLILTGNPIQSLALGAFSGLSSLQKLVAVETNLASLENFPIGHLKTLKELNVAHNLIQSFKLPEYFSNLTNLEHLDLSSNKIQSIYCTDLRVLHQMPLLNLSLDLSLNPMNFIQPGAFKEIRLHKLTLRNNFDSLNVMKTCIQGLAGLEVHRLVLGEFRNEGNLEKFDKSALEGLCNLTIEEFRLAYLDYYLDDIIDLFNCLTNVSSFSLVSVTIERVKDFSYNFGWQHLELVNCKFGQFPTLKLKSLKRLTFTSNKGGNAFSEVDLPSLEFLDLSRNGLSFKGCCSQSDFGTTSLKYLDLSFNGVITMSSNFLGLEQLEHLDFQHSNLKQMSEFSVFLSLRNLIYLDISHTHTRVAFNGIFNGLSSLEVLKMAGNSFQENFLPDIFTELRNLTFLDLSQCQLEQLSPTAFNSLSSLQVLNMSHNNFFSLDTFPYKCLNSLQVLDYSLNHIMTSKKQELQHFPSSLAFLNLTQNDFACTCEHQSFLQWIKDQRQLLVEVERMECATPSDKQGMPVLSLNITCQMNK

T1 sequence (O00206 24-631, chain 1 of 2): as the sequence (O00206 24-631) above
T1 sequence (Q9Y6Y9 19-160, chain 2 of 2): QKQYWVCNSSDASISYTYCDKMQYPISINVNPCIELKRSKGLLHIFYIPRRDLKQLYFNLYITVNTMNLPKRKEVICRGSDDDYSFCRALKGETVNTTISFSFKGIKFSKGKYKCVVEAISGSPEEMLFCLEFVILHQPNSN

Kd (Human TLR4/MD-2 complex): 0.42 ± 0.01 µM
fold faster association rate than the other isoforms (Human TLR4/MD-2 complex): 10 fold
kon (Human TLR4/MD-2 complex): 286000 M⁻¹ s⁻¹
B1: disulfide HMGB1 (High Mobility Group Box 1) (natural protein, UniProt P63159 1-215, looked up)
chain: MGKGDPKKPRGKMSSYAFFVQTCREEHKKKHPDASVNFSEFSKKCSERWKTMSAKEKGKFEDMAKADKARYEREMKTYIPPKGETKKKFKDPNAPKRPPSAFFLFCSEYRPKIKGEHPGLSIGDVAKKLGEMWNNTAADDKQPYEKKAAKLKEKYEKDIAAYRAKGKPDAAKKGVVKAEKSKKKKEEEDDEEDEEDEEEEEEEEDEDEEEDDDDE
modifications: disulfide bond between C23 and C45
notes: High Mobility Group Box 1 (HMGB1), single 215-amino acid polypeptide; neither is stated here; also called disulfide HMGB1 isoform; intact HMGB1; source: E. coli, purified to homogeneity

Kd (Human TLR4/MD-2 complex): 3.93 ± 0.01 µM
B2: DTT reduced HMGB1 (natural protein, UniProt P63159 1-215, looked up)
chain: B1 chain
modifications: cysteines reduced with DTT (no C23-C45 disulfide)
notes: High Mobility Group Box 1 (HMGB1), 215 amino acids, reduced form; Prepared as in Yang et al. 2012 (cited); Same protein as m1 in another redox state; source: E. coli, purified to homogeneity, then reduced with DTT

Kd (human TLR4): 4.2 ± 0.09 µM
Kd (Human TLR4/MD-2 complex): 3.02 ± 0.02 µM
B3: non-oxidizable HMGB1 3S mutant (natural protein, UniProt P63159 1-215, looked up)
chain: B1 chain with C23S, C45S, C106S
notes: HMGB1 in which all three cysteines (C23, C45, C106) are replaced by serines; Commercial protein; also called 3S mutant HMGB1; source: provided by HMGBiotech (Milan, Italy)
